Results taken from patent US20220111022A1 (IMMATICS BIOTECHNOLOGIES, published 2022).

Molecular target: T1, HLA-A*02:01 (human)
T1 construct: MHC monomers first loaded with a UV-sensitive peptide (not identified) that is cleaved and exchanged for the test peptide; captured on streptavidin-coated plates and detected with anti-β2m; also called peptide-receptive MHC molecules; MHC class I
Assay: UV-ligand exchange, anti-b2m ELISA; peptide exchange yield grade
Source text: Candidate peptides for T cell based therapies according to the present invention were further tested for their MHC binding capacity (affinity). The individual peptide-MHC complexes were produced by UV-ligand exchange, where a UV-sensitive peptide is cleaved upon UV-irradiation and exchanged with the peptide of interest as analyzed. Only peptide candidates that can effectively bind and stabilize the peptide-receptive MHC molecules prevent dissociation of the MHC complexes. To determine the yield of the exchange reaction, an ELISA was performed based on the detection of the light chain (β2m) of stabilized MHC complexes. The assay was performed as generally described in Rodenko et al. (Rodenko et al., 2006).
96 well MAXISorp plates (NUNC) were coated over night with 2 μg/ml streptavidin in PBS at room temperature, washed 4× and blocked for 1 h at 37° C. in 2% BSA containing blocking buffer. Refolded HLA-A*02:01/MLA-001 monomers served as standards, covering the range of 15-500 ng/ml. Peptide-MHC monomers of the UV-exchange reaction were diluted 100-fold in blocking buffer. Samples were incubated for 1 h at 37° C., washed four times, incubated with 2 μg/ml HRP conjugated anti-β2m for 1h at 37° C., washed again and detected with TMB solution that is stopped with […]. Absorption was measured at 450 nm. Candidate peptides that show a high exchange yield (preferably higher than 50%, most preferred higher than 75%) are generally preferred for a generation and production of antibodies or fragments thereof, and/or T cell receptors or fragments thereof, as they show sufficient avidity to the MHC molecules and prevent dissociation of the MHC complexes.

B1: KLDASLPAL (peptide)
peptide: KLDASLPAL
In the case of B1, the peptide exchange yield is reported as no less than 75%.

B2: ALDSSLQLL (peptide)
peptide: ALDSSLQLL
Work on B2 yielded a peptide exchange yield of no less than 75%.

B3: SLDDSLNEL (peptide)
peptide: SLDDSLNEL
B3 was tested, and the peptide exchange yield was 50 to 75%.

B4: YLHGFDLSL (peptide)
peptide: YLHGFDLSL
Work on B4 yielded a peptide exchange yield of no less than 75%.

B5: SLFIDVTRV (peptide)
peptide: SLFIDVTRV
B5 gave a peptide exchange yield of no less than 75%.

B6: SLLRDFTLV (peptide)
peptide: SLLRDFTLV
Binder B6 has a peptide exchange yield of no less than 75%.

B7: VLKDGTLVI (peptide)
peptide: VLKDGTLVI
For B7, the peptide exchange yield was 20 to 50%.

B8: KLAPEDLADLTAL (peptide)
peptide: KLAPEDLADLTAL
With B8 the peptide exchange yield was no less than 75%.

B9: KLLDGSQRV (peptide)
peptide: KLLDGSQRV
B9 gave a peptide exchange yield of 50 to 75%.

B10: SLLDENDVSSYL (peptide)
peptide: SLLDENDVSSYL
B10 gave a peptide exchange yield of no less than 75%.

B11: YLADFSHAT (peptide)
peptide: YLADFSHAT
B11 showed a peptide exchange yield of no less than 75%.

B12: LLDTTDVYL (peptide)
peptide: LLDTTDVYL
With B12 the peptide exchange yield was 50 to 75%.

B13: ALDSTNSEL (peptide)
peptide: ALDSTNSEL
Work on B13 yielded a peptide exchange yield of no less than 75%.

B14: NLLADVSTV (peptide)
peptide: NLLADVSTV
With B14 the peptide exchange yield was 50 to 75%.

B15: AVDKTQTSV (peptide)
peptide: AVDKTQTSV
For B15, the peptide exchange yield was 50 to 75%.

B16: LLDITNPVL (peptide)
peptide: LLDITNPVL
Work on B16 yielded a peptide exchange yield of no less than 75%.

B17: SMASFLKDV (peptide)
peptide: SMASFLKDV
Binder B17 has a peptide exchange yield of no less than 75%.

B18: YLDGTFRLL (peptide)
peptide: YLDGTFRLL
B18 showed a peptide exchange yield of 50 to 75%.

B19: KMLDETVLV (peptide)
peptide: KMLDETVLV
Work on B19 yielded a peptide exchange yield of 50 to 75%.

B20: VLDGTEVNL (peptide)
peptide: VLDGTEVNL
Work on B20 yielded a peptide exchange yield of no less than 75%.

B21: AIDQTITEA (peptide)
peptide: AIDQTITEA
In the case of B21, the peptide exchange yield is reported as 50 to 75%.

B22: NMYDLTFHV (peptide)
peptide: NMYDLTFHV
For B22, the peptide exchange yield was no less than 75%.

B23: FLNPDGSDCTL (peptide)
peptide: FLNPDGSDCTL
B23 gave a peptide exchange yield of no less than 75%.

B24: NLADNTILV (peptide)
peptide: NLADNTILV
B24 was tested, and the peptide exchange yield was no less than 75%.

B25: ALMDVSQNV (peptide)
peptide: ALMDVSQNV
B25 showed a peptide exchange yield of no less than 75%.

B26: NLLDHSSMFL (peptide)
peptide: NLLDHSSMFL
In the case of B26, the peptide exchange yield is reported as no less than 75%.

B27: YLGAVFDL (peptide)
peptide: YLGAVFDL
In the case of B27, the peptide exchange yield is reported as no less than 75%.

B28: RLLDETVDVTI (peptide)
peptide: RLLDETVDVTI
In the case of B28, the peptide exchange yield is reported as no less than 75%.

B29: FLNVDVSEV (peptide)
peptide: FLNVDVSEV
B29 gave a peptide exchange yield of no less than 75%.

B30: YLWWVNDQSL (peptide)
peptide: YLWWVNDQSL
In the case of B30, the peptide exchange yield is reported as no less than 75%.

B31: KLHDTSFCL (peptide)
peptide: KLHDTSFCL
With B31 the peptide exchange yield was no less than 75%.

B32: RLQDTTIGL (peptide)
peptide: RLQDTTIGL
B32 was tested, and the peptide exchange yield was no less than 75%.

B33: ALADLTGTV (peptide)
peptide: ALADLTGTV
For B33, the peptide exchange yield was no less than 75%.

B34: ALAGLVYDA (peptide)
peptide: ALAGLVYDA
B34 showed a peptide exchange yield of no less than 75%.

B35: KLAPDLTEL (peptide)
peptide: KLAPDLTEL
Work on B35 yielded a peptide exchange yield of 50 to 75%.

B36: KILDFTGPLFL (peptide)
peptide: KILDFTGPLFL
B36 showed a peptide exchange yield of no less than 75%.
